Results as given in US20220073604A1 (ARGENX BVBA, published 2022).
Where “and” joins values, the source holds several entries; their conditions need not be identical. Identical values can stand only once.

How the values were obtained:
[1] = target: T1, eukaryotically produced human IL-6 (human, UniProt P05231 30-212); experiment: SPR; periplasmic fraction
T1 construct: also called eukIL-6; Euk IL-6

[2] = target: T2, cynomolgus monkey IL-6 (cynomolgus monkey, UniProt P79341 28-212, limits assumed); experiment: SPR; periplasmic fraction
T2 construct: also called HIS-cyIL-6

[3] = target: T3, bacterially produced human IL-6 (human, UniProt P05231 30-212); experiment: SPR; periplasmic fraction
T3 construct: also called bactIL-6; prokaryotic IL-6

[4] = target: T1, eukaryotically produced human IL-6; experiment: SPR; purified Fab; IL-6 coated on CM5 chip
Protocol: (§1) From the washing phase the off-rate (kd) was determined, while from the injection phase the on-rate (ka) was calculated using the concentration and off-rate as parameters.

[5] = target: T3, bacterially produced human IL-6; experiment: SPR; purified Fab; IL-6 coated on CM5 chip
Protocol: as §1

[6] = target: T3, bacterially produced human IL-6; experiment: SPR; purified Fab over biotinylated IL-6 on streptavidin chip
Protocol: as §1

[7] = target: T1, eukaryotically produced human IL-6; experiment: SPR; periplasmic fraction; against parental 29B11
[8] = target: T2, cynomolgus monkey IL-6; experiment: SPR; periplasmic fraction; against parental 29B11
[9] = target: T3, bacterially produced human IL-6; experiment: SPR; periplasmic fraction; against parental 29B11
[10] = target: T1, eukaryotically produced human IL-6; experiment: SPR; purified Fab
[11] = target: T2, cynomolgus monkey IL-6; experiment: SPR; purified Fab
[12] = target: T3, bacterially produced human IL-6; experiment: SPR; purified Fab

| Ka [2] [M⁻¹] | Kd [2] [nM] | koff [2] [s⁻¹] | kon [2] [M⁻¹ s⁻¹] | Ka [3] [M⁻¹] | Kd [3] [nM] | koff [3] [s⁻¹] | kon [3] [M⁻¹ s⁻¹] | Kd [4] [nM] | koff [4] [s⁻¹] | Ka [6] [M⁻¹] | Kd [6] [nM] | koff [6] [s⁻¹] | kon [6] [M⁻¹ s⁻¹] | Kd [10] | koff [10] | Kd [11] | koff [11] | Kd [12] [nM] | koff [12] [s⁻¹] | Binder | other results |
| --- | --- | --- | --- | --- | --- | --- | --- | --- | --- | --- | --- | --- | --- | --- | --- | --- | --- | --- | --- | --- | --- |
| 1.51e+08 | 6.61 | 0.000746 | 113000 | 1.91e+09 | 0.524 | 0.000131 | 251000 | 0.51 | 0.0001 | 4.36e+07 | 22.9 | 0.00298 | 130000 | – | – | – | – | – | – | Fab 29B11 (Fab, V domains shown, Fab) VH: EVQLVESGGGLVQPGGSLRLSCAASGFTFSSYAMSWVRQAPGKGLEWVSRISSGGISTYYADSVKGRFTISRDNAKNTLYLQMNSLKPEDTAVYYCVRYAWGVQWAFDFWGQGTQVTVSS VL: QSVLTQPPSVSGSPGQTVTISCAGTSEDVGYGNYVSWYQQLPGMAPKLLIYDVNKRASGIADRFSGSKSGNTASLTISGLQSEDEADYYCASYRRTIDNIFGGGTHLTVLG | Ka [1]: 1.83e+09 M⁻¹; Kd [1]: 0.546 nM; koff [1]: 0.000102 s⁻¹; kon [1]: 187000 M⁻¹ s⁻¹; Kd [5]: 0.93 nM; koff [5]: 0.00022 s⁻¹ |
| 1.25e+09 | 0.801 | 0.000381 | 475000 | 7.6e+09 | 0.132 | 7.38e-05 | 561000 | – | – | – | – | – | – | – | – | – | – | – | – | Fab 55C1 (Fab, V domains shown, VL-shuffled Fab of 29B11, periplasmic fraction; also called 55C1a) VH: EVQLVESGGGLVQPGGSLRLSCAASGFTFSSYAMSWVRQAPGKGLEWVSRISSGGISTYYADSVKGRFTISRDNAKNTLYLQMNSLKPEDTAVYYCVRYAWGVQWAFDFWGQGTQVTVSS VL: LNFMLTQPPSVSGSPGKTVTISCAGTSSDVGYGNYVSWYQQLPGTAPKLLIYNVNKRASGITDRFSGSKSGNTASLTISGLQSEDEADYYCASYRTGDNAAFGGGTKLTVLG | Ka [1]: 5.55e+09 M⁻¹; Kd [1]: 0.18 nM; koff [1]: 7.93e-05 s⁻¹; kon [1]: 440000 M⁻¹ s⁻¹; fold improvement KD [7]: 3.03 fold; fold improvement ka [7]: 2.35 fold; fold improvement kd [7]: 1.29 fold; fold improvement KD [8]: 8.25 fold; fold improvement ka [8]: 4.2 fold; fold improvement kd [8]: 1.96 fold; fold improvement KD [9]: 3.97 fold; fold improvement ka [9]: 2.24 fold; fold improvement kd [9]: 1.78 fold |
| 1.89e+09 | 0.529 | 0.000615 | 1.16e+06 | 1e+10 | 0.0997 | 0.000127 | 1.28e+06 | – | – | – | – | – | – | – | – | – | – | – | – | Fab 55H1 (Fab, V domains shown, VL-shuffled Fab of 29B11, periplasmic fraction; also called 55H1c) VH: EVQLVESGGGLVQPGGSLRLSCAASGFTFSSYAMSWVRQAPGKGLEWVSRISSGGISTYYADSVKGRFTISRDNAKNTLYLQMNSLKPEDTAVYYCVRYAWGVQWAFDFWGQGTQVTVSS VL: AQSVVTQPPSVSGSPGKTVTISCAGTSSDVGYGNYVSWYQQLPGMAPKLLIYDVSKRASGIADRFSGSKSGNTASLTISGLQSEDEADYVCASYRRGGTAVFGGGTHLTVLG | Ka [1]: 1.02e+10 M⁻¹; Kd [1]: 0.0977 nM; koff [1]: 0.000111 s⁻¹; kon [1]: 1.13e+06 M⁻¹ s⁻¹; fold improvement KD [7]: 5.59 fold; fold improvement ka [7]: 6.04 fold; fold improvement kd [7]: 0.92 fold; fold improvement KD [8]: 12.5 fold; fold improvement ka [8]: 10.3 fold; fold improvement kd [8]: 1.21 fold; fold improvement KD [9]: 5.26 fold; fold improvement ka [9]: 5.1 fold; fold improvement kd [9]: 1.03 fold |
| 4.1e+08 | 2.44 | 0.00044 | 180000 | 1.43e+09 | 0.701 | 0.000184 | 262000 | – | – | – | – | – | – | – | – | – | – | – | – | Fab 48C10 (Fab, V domains shown, VL-shuffled Fab of 29B11, periplasmic fraction) VH: EVQLVESGGGLVQPGGSLRLSCAASGFTFSSYAMSWVRQAPGKGLEWVSRISSGGISTYYADSVKGRFTISRDNAKNTLYLQMNSLKPEDTAVYYCVRYAWGVQWAFDFWGQGTQVTVSS VL: AQSVLTQPPSVSGSPGQTVTISCAGTSEDVGYGNYVSWYQQLPGMAPKLLIYDVNKRASGIADRFSGSKSGNTASLTISGLQSEDEADYYCASYRRTIDNIFGGGTHLTVLG | fold improvement KD [8]: 2.71 fold; fold improvement ka [8]: 1.59 fold; fold improvement kd [8]: 1.7 fold; fold improvement KD [9]: 0.75 fold; fold improvement ka [9]: 1.04 fold; fold improvement kd [9]: 0.71 fold |
| – | – | – | – | – | – | – | – | – | – | – | – | – | – | 0.34 nM | 0.00011 s⁻¹ | 0.69 nM | 0.00015 s⁻¹ | 0.75 | 0.00015 | Fab 42H1/36A1 (Fab, V domains shown, VL-shuffled Fab of 18C11) VH: EVQLVESGGGLVQPGGSLRLSCAASGFTFSSYAMSWVRQAPGKGLEWVSAINSGGGSTSYADSVKGRFTISRDNAKNTLYLQMNSLKPEDTAVYYCAKEGDTGWKDPMYDYWGQGTQVTVSS VL: AQSALTQPSALSVTLGQTAKITCQGGSLGTRYAHWYQQKPGQAPVLVIYDDDSRPSGIPERFSGSSSGGRATLTISGAQAEDEGDYYCQSADSSGNASVFGGGTHLTVLG | – |
| – | – | – | – | – | – | – | – | – | – | – | – | – | – | 0.46 nM | 0.00016 s⁻¹ | 0.34 nM | 0.00012 s⁻¹ | 0.54 | 0.00016 | Fab 41E10/35B1 (Fab, V domains shown, VL-shuffled Fab of 17F10) VH: EVQLQESGPGLVKPSQTLSLTCTVSGGSIATSYYAWSWIRQPPGKGLEWMGVIDYDGDTYYKPSLKSRTSISRDTSKNQFSLQLSSVTPEDTAVYYCARAGLGDSYYLGTYYAMDYWGKGTLVTVSS VL: QAVLTQPPSMSGTLGKTLTISCNGTSSDIGSGNYVSWYQQLPGTTPKLLIEGVTTRVSGIPDRFSGSKSDNTASLTISGLQSEDEATYYCASYRETNNVVFGGGTHLTVLG | – |
| – | – | – | – | – | – | – | – | – | – | – | – | – | – | 0.41 nM and 0.92 nM | 0.00012 s⁻¹ and 0.0002 s⁻¹ | 0.28 nM and 0.72 nM | 8.1e-05 s⁻¹ and 0.00017 s⁻¹ | 0.47 | 0.00011 | Fab 41B5/35C1 (Fab, V domains shown, VL-shuffled Fab of 17F10) VH: EVQLQESGPGLVKPSQTLSLTCTVSGGSIATSYYAWSWIRQPPGKGLEWMGVIDYDGDTYYKPSLKSRTSISRDTSKNQFSLQLSSVTPEDTAVYYCARAGLGDSYYLGTYYAMDYWGKGTLVTVSS VL: QSALTQPPSMSGTLGKTLTISCNGTSSDIGSGDYVSWYQQLPGTTPKLLIEGVTTRASGIPDRFSASKSDNTASLTISGLQSEDEATYYCASYRETNNVVFGGGTHLTVLS | – |
| – | – | – | – | – | – | – | – | 1.7 | 0.0003 | 1.51e+09 | 0.661 | 8.77e-05 | 133000 | – | – | – | – | – | – | Fab 24C9 (Fab, V domains shown, Fab) VH: QVQLVESGGGLVQPGGSLRLSCAASGFTFSSYRMYWVRQPPGKGLEWVSAISAGGGSTYYGDSVKGRFTISRDNAKNTVYLQMNSLKPEDTALYYCKKSTWADGESDYWGQGTQVTVSS VL: QTVVTQEPSLSVSPGGTVTLTCGLSSGSVTASNYPGWFQQTPGQAPRALIYSTNDRHSGVPSRFSGSISGNKAALTITGAQPEDEADYYCALDIGDITEFGGGTHLTVLG | Kd [5]: 2.6 nM; koff [5]: 0.00037 s⁻¹ |
| – | – | – | – | – | – | – | – | 7.7 | 0.001 | 5.7e+07 | 17.5 | 0.00185 | 105000 | 7.7 nM and 5.2 nM | 0.001 s⁻¹ and 0.00082 s⁻¹ | 5.3 nM and 4.9 nM | 0.00063 s⁻¹ and 0.00069 s⁻¹ | 9.1 | 0.0011 | Fab 18C7 (Fab, V domains shown, Fab; also called 18C7 (090-423)) VH: EVQLVESGPGLVKPSQTLSLTCTVSGGSITASFDAWSWIRQPPGKGLEWMGVIAYDGSTYYSPSLKSRTSISRDTSKNQFSLQLSSVTPEDTAVYYCARKSSWLIGYGMDYWGKGTLVTVSS VL: QAGLTQPSALSVTLGQTAKITCQGGSLGSSYAHWYQQKPGQAPVLVIYDDDSRPSGIPERFSGSSSGGRATLTISGAQAEDEGDYYCQSADSSGNAAVFGGGTHLTVLG | Kd [5]: 9.1 nM; koff [5]: 0.0011 s⁻¹ |
| – | – | – | – | – | – | – | – | – | – | 7.05e+07 | 14.2 | 0.000784 | 55200 | 2.9 nM | 0.00076 s⁻¹ | 3.4 nM | 0.00085 s⁻¹ | – | – | Fab 18C11 (Fab, V domains shown, Fab) VH: EVQLVESGGGLVQPGGSLRLSCAASGFTFSSYAMSWVRQAPGKGLEWVSAINSGGGSTSYADSVKGRFTISRDNAKNTLYLQMNSLKPEDTAVYYCAKEGDTGWKDPMYDYWGQGTQVTVSS VL: QSVVTQPSALSVTLGQTAKITCQGGGLRSSYAHWYQQKPGQAPVLVIYDDDSRPSGIPERFSGSSSGGRATLTISGAQAEDEGDYYCQSADSSGNAAVFGGGTHLTVLG | – |
| – | – | – | – | – | – | – | – | 0.81 | 0.0003 | 1.72e+08 | 5.82 | 0.00168 | 288000 | 0.81 nM | 0.0003 s⁻¹ | 1.7 nM | 0.00075 s⁻¹ | 2 | 0.00062 | Fab 20A4 (Fab, V domains shown, Fab) VH: EVQLQESGPGLVKPSQTLSLTCTVSGGSITTRYYAWSWIRQPPGKGLEWMGVIDYDGDTYYSPSLKSRTSISWDTSKNQFSLQLSSVTPEDTAVYYCARDPDVVTGFHYDYWGQGTQVTVSS VL: LNFMLTQPPSVSGTLGKTVTISCAGTSSDIGGYNYVSWYQQLPGTAPKLLIHRVSTRASGIPDRFSGSKSGNTASLTISGLRSEDEANYYCASYRNFNNAVFGGGTQLTVLG | Kd [5]: 2 nM; koff [5]: 0.00062 s⁻¹ |
